Results from US20230057263A1.

T1: (H2N-…-OH) vCD3e #p2-BSA
T1 sequence (peptide, conjugated to BSA): CPQYPGSEILWQHNDK

T2: (H2N-…-OH) vCD3e #p3-BSA
T2 sequence (peptide, conjugated to BSA): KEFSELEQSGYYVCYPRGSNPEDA

B1: SP34-2 (antibody, from a related filing, V domains shown)
VH: EVQLVESGGGLVQPKGSLKLSCAASGFTFNTYAMNWVRQAPGKGLEWVARIRSKYNNYATYYADSVKDRFTISRDDSQSILYLQMNNLKTEDTAMYYCVRHGNFGNSYVSWFAYWGQGTLVTVSA
VL: QAVVTQESALTTSPGETVTLTCRSSTGAVTTSNYANWVQEKPDHLFTGLIGGTNKRAPGVPARFSGSLIGDKAALTITGAQTEDEAIYFCALWYSNLWVFGGGTKLTVL
B2: 6d59 (antibody, V domains shown)
VH: QVHLVESGGGVVQPGRSLRLSCAASGFKFRSYGMHWVRQAPGKGLEWVAIIWYDGSKRYYADSVKGRFTISRDNSKNTLYLQMSSLRAEDTAVYYCARDLITGTTDYWGQGTLVTVSS
VL: DVVMTQSPLSLPVTLGQPASISCRSSRSLVYSDGNTHLIWFQQRPGQSPRRLIYRVSNRVSGVPDRFSGSGSGTDFTLKISRVEAEDVGVYYCLQGAHWPYTFGQGTKLEIKR

Legend:
[1] = target: human CD3 epsilon (CD3ε) (human) (UniProt P07766); test: flow cytometry on human T cells
[2] = target: cynomolgus CD3-epsilon (cynomolgus) (UniProt Q95LI5); test: flow cytometry on cynomolgus T cells
[3] = target: T1, (H2N-…-OH) vCD3e #p2-BSA; test: Luminex bead assay, 1 ug/ml antibody [Cont.]
[4] = target: T2, (H2N-…-OH) vCD3e #p3-BSA; test: Luminex bead assay, 1 ug/ml antibody [Cont.]
[5] = target: BSA alone (bovine) (UniProt P02769); test: Luminex bead assay, 1 ug/ml antibody [Cont.]
[6] = target: biotinylated 15-mer peptide corresponding to the CD3ε N-terminus (human) (UniProt P07766); test: Luminex bead assay, 1 ug/ml antibody [Cont.]
[7] = target: huCD3d/eCHO-E DT1331 (human) (UniProt P04234); test: Luminex bead assay, 1 ug/ml antibody [Cont.]
[8] = target: vCD3e #p1 peptide; test: Luminex bead assay, 1 ug/ml antibody [Cont.]
[9] = target: cynomolgus CD3-epsilon (cynomolgus) (UniProt Q95LI5); test: Luminex bead assay, 1 ug/ml antibody; recombinant cyno CD3 (sinobiologicals) on beads [Cont.]

cynomolgus CD3-epsilon (cynomolgus), sequence (Q95LI5 22-198): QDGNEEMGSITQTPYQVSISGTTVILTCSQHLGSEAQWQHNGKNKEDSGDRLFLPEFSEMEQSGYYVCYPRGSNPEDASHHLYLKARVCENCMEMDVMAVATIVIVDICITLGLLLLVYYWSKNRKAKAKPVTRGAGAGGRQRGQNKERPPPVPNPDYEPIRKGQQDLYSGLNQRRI
BSA alone (bovine), sequence (P02769 25-607 limits assumed): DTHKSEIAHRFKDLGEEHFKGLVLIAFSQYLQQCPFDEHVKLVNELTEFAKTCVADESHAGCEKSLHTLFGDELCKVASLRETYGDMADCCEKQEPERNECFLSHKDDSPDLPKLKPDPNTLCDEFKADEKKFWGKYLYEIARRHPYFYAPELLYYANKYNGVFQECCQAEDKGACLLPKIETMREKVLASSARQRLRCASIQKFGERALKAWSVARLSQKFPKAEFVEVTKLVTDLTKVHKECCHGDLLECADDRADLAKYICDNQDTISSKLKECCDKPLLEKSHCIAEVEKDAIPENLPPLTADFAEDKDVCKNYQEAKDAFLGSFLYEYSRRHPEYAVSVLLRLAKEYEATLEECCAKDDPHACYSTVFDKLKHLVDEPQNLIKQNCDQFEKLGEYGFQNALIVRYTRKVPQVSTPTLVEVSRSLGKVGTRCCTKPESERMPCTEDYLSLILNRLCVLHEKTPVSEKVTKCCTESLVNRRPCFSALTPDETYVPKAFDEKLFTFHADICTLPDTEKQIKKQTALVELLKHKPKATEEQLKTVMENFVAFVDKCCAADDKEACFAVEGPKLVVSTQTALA
huCD3d/eCHO-E DT1331 (human), sequence (P04234 22-105): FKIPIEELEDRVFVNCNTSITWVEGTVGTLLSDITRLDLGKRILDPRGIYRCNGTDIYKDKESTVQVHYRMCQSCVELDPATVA

Binder | EC50 (read off the curve) [1] [nM] | EC50 (read off the curve) [2] [nM] | Luminex signal [3] | Luminex signal [4] | Luminex signal [5] | Luminex signal [6] | Luminex signal [7] | Luminex signal [8] | Luminex signal [9]
B1 | 0.2 | 0.3 | 184 | 439 | 398 | 6.5 | 22100 | 17900 | 17200
B2 |  |  | 238 |  |  |  |  |  | 
